Assay results from article PMC5798299.

Key:
[1] = biological target: BG505 SOSIP.664-D7324 A316W trimer (unpurified, 293T) (HIV-1 (clade A, BG505)); assay: native gel or EMSA; BN-PAGE of unpurified Env proteins in 293T culture supernatants, Western blot with bNAb 2G12
[2] = biological target: BG505 SOSIP.664-D7324 R308L trimer (unpurified, 293T) (HIV-1 (clade A, BG505)); assay: as above
[3] = biological target: BG505 SOSIP.664-D7324 S306L trimer (unpurified, 293T) (HIV-1 (clade A, BG505)); assay: as above
[4] = biological target: BG505 SOSIP.664-D7324 trimer (PGT145-purified, 293F) (HIV-1 (clade A, BG505)); assay: native gel or EMSA; BN-PAGE of PGT145-purified trimers, Coomassie Blue stain
[5] = biological target: BG505 SOSIP.664-D7324 trimer (unpurified, 293T) (HIV-1 (clade A, BG505)); assay: native gel or EMSA; BN-PAGE of unpurified Env proteins in 293T culture supernatants, Western blot with bNAb 2G12
[6] = biological target: BG505 SOSIP.v4.1 S306L/R308L-D7324 trimer (HIV-1 (clade A, BG505)); assay: native gel or EMSA; BN-PAGE of PGT145-purified trimers, Coomassie Blue stain
[7] = biological target: BG505 SOSIP.v4.1-D7324 trimer (HIV-1 (clade A, BG505)); assay: as above
[8] = biological target: BG505 SOSIP.v5.2 S306L/R308L-D7324 trimer (HIV-1 (clade A, BG505)); assay: as above
[9] = biological target: BG505 SOSIP.v5.2-D7324 trimer (HIV-1 (clade A, BG505)); assay: as above

Substance: BG505 SOSIP.664-D7324 A316W trimer (unpurified, 293T) (complex)
- stoichiometry N [1]: 3

Substance: BG505 SOSIP.664-D7324 R308L trimer (unpurified, 293T) (complex)
- stoichiometry N [2]: 3

Substance: BG505 SOSIP.664-D7324 S306L trimer (unpurified, 293T) (complex)
- stoichiometry N [3]: 3

Substance: BG505 SOSIP.664-D7324 trimer (PGT145-purified, 293F) (complex)
- stoichiometry N [4]: 3

Substance: BG505 SOSIP.664-D7324 trimer (unpurified, 293T) (complex)
- stoichiometry N [5]: 3

Substance: BG505 SOSIP.v4.1 S306L/R308L-D7324 trimer (complex)
- stoichiometry N [6]: 3

Substance: BG505 SOSIP.v4.1-D7324 trimer (complex)
- stoichiometry N [7]: 3

Substance: BG505 SOSIP.v5.2 S306L/R308L-D7324 trimer (complex)
- stoichiometry N [8]: 3

Substance: BG505 SOSIP.v5.2-D7324 trimer (complex)
- stoichiometry N [9]: 3
